According to the Human Domainome abundance scans (Beltran et al. 2025):
± gives the uncertainty stated by the source.

B1: Histone H1t, residues 44 to 112; numbered along this chain, P22492 (parent)
chain: VSKLITEALSVSQERVGMSLVALKKALAAAGYDVEKNNSRIKLSLKSLVNKGILVQTRGTGASGSFKLS

Variants of: B1
Test: abundance fitness (aPCA) (normalised: wild type 0, dead -1); higher = more abundant; growth selection in yeast, the domain comes from the species named
Conditions: Homo sapiens

Row | Variant | abundance fitness
1 | VSKLITEALSVSQERVGMSLVALKKALAAAGYDVEKYNSRIKLSLKSLVNKGILVQTRGTGASGSFKLS | -0.289 ± 0.38
2 | VSKLITEALSVSQERVGMSLVALKKALAAAGYDVEKVNSRIKLSLKSLVNKGILVQTRGTGASGSFKLS | -0.161 ± 0.17
3 | VSKLITEALSVSQERVGMSLVALKKALAAAGYDVEKGNSRIKLSLKSLVNKGILVQTRGTGASGSFKLS | -0.091 ± 0.12
4 | VSKLITEALSVSQERVGMSLVALKKALAAAGYDVEKMNSRIKLSLKSLVNKGILVQTRGTGASGSFKLS | -0.45 ± 0.28
5 | VSKLITEALSVSQERVGMSLVALKKALAAAGYDVEKINSRIKLSLKSLVNKGILVQTRGTGASGSFKLS | 0.148 ± 0.16
6 | VSKLITEALSVSQERVGMSLVALKKALAAAGYDVEKSNSRIKLSLKSLVNKGILVQTRGTGASGSFKLS | -0.013 ± 0.28
7 | VSKLITEALSVSQERVGMSLVALKKALAAAGYDVEKDNSRIKLSLKSLVNKGILVQTRGTGASGSFKLS | -0.397 ± 0.24
8 | VSKLITEALSVSQERVGMSLVALKKALAAAGYDVEKRNSRIKLSLKSLVNKGILVQTRGTGASGSFKLS | 0.077 ± 0.18
9 | VSKLITEALSVSQERVGMSLVALKKALAAAGYDVEKLNSRIKLSLKSLVNKGILVQTRGTGASGSFKLS | -0.061 ± 0.11
10 | VSKLITEALSVSQERVGMSLVALKKALAAAGYDVEKHNSRIKLSLKSLVNKGILVQTRGTGASGSFKLS | 0.093 ± 0.24
11 | VSKLITEALSVSQERVGMSLVALKKALAAAGYDVEKFNSRIKLSLKSLVNKGILVQTRGTGASGSFKLS | -0.178 ± 0.29
12 | VSKLITEALSVSQERVGMSLVALKKALAAAGYDVEKTNSRIKLSLKSLVNKGILVQTRGTGASGSFKLS | -0.522 ± 0.33
13 | VSKLITEALSVSQERVGMSLVALKKALAAAGYDVEKANSRIKLSLKSLVNKGILVQTRGTGASGSFKLS | 0.244 ± 0.36
14 | VSKLITEALSVSQERVGMSLVALKKALAAAGYDVEKPNSRIKLSLKSLVNKGILVQTRGTGASGSFKLS | -0.173 ± 0.28
15 | VSKLITEALSVSQERVGMSLVALKKALAAAGYDVEKWNSRIKLSLKSLVNKGILVQTRGTGASGSFKLS | -0.083 ± 0.38
16 | VSKLITEALSVSQERVGMSLVALKKALAAAGYDVEQNNSRIKLSLKSLVNKGILVQTRGTGASGSFKLS | -0.152 ± 0.044
17 | VSKLITEALSVSQERVGMSLVALKKALAAAGYDVEVNNSRIKLSLKSLVNKGILVQTRGTGASGSFKLS | -0.46 ± 0.053
18 | VSKLITEALSVSQERVGMSLVALKKALAAAGYDVETNNSRIKLSLKSLVNKGILVQTRGTGASGSFKLS | -0.323 ± 0.048
19 | VSKLITEALSVSQERVGMSLVALKKALAAAGYDVERNNSRIKLSLKSLVNKGILVQTRGTGASGSFKLS | -0.106 ± 0.033
20 | VSKLITEALSVSQERVGMSLVALKKALAAAGYDVEYNNSRIKLSLKSLVNKGILVQTRGTGASGSFKLS | -0.362 ± 0.092

Row | Variant | abundance fitness
21 | VSKLITEALSVSQERVGMSLVALKKALAAAGYDVEWNNSRIKLSLKSLVNKGILVQTRGTGASGSFKLS | -0.626 ± 0.055
22 | VSKLITEALSVSQERVGMSLVALKKALAAAGYDVESNNSRIKLSLKSLVNKGILVQTRGTGASGSFKLS | -0.25 ± 0.038
23 | VSKLITEALSVSQERVGMSLVALKKALAAAGYDVEKNNARIKLSLKSLVNKGILVQTRGTGASGSFKLS | -0.005 ± 0.04
24 | VSKLITEALSVSQERVGMSLVALKKALAAAGYDVEKNVSRIKLSLKSLVNKGILVQTRGTGASGSFKLS | 0.047 ± 0.085
25 | VSKLITEALSVSQERVGMSLVALKKALAAAGYDVEKNHSRIKLSLKSLVNKGILVQTRGTGASGSFKLS | -0.405 ± 0.39
26 | VSKLITEALSVSQERVGMSLVALKKALAAAGYDVEKNPSRIKLSLKSLVNKGILVQTRGTGASGSFKLS | -0.168 ± 0.069
27 | VSKLITEALSVSQERVGMSLVALKKALAAAGYDVEKNMSRIKLSLKSLVNKGILVQTRGTGASGSFKLS | 0.084 ± 0.16
28 | VSKLITEALSVSQERVGMSLVALKKALAAAGYDVEKNDSRIKLSLKSLVNKGILVQTRGTGASGSFKLS | -0.632 ± 0.23
29 | VSKLITEALSVSQERVGMSLVALKKALAAAGYDVEKNGSRIKLSLKSLVNKGILVQTRGTGASGSFKLS | -0.122 ± 0.15
30 | VSKLITEALSVSQERVGMSLVALKKALAAAGYDVEKNLSRIKLSLKSLVNKGILVQTRGTGASGSFKLS | 0.048 ± 0.066
31 | VSKLITEALSVSQERVGMSLVALKKALAAAGYDVEKNASRIKLSLKSLVNKGILVQTRGTGASGSFKLS | 0.106 ± 0.087
32 | VSKLITEALSVSQERVGMSLVALKKALAAAGYDVEKNQSRIKLSLKSLVNKGILVQTRGTGASGSFKLS | -0.058 ± 0.1
33 | VSKLITEALSVSQERVGMSLVALKKALAAAGYDVEKNKSRIKLSLKSLVNKGILVQTRGTGASGSFKLS | -0.124 ± 0.36
34 | VSKLITEALSVSQERVGMSLVALKKALAAAGYDVEKNWSRIKLSLKSLVNKGILVQTRGTGASGSFKLS | 0.105 ± 0.22
35 | VSKLITEALSVSQERVGMSLVALKKALAAAGYDVEKNRSRIKLSLKSLVNKGILVQTRGTGASGSFKLS | -0.393 ± 0.28
36 | VSKLITEALSVSQERVGMSLVALKKALAAAGYDVEKNSSRIKLSLKSLVNKGILVQTRGTGASGSFKLS | 0.044 ± 0.09
37 | VSKLITEALSVSQERVGMSLVALKKALAAAGYDVEKNISRIKLSLKSLVNKGILVQTRGTGASGSFKLS | -0.162 ± 0.34
38 | VSKLITEALSVSQERVGMSLVALKKALAAAGYDVEKNTSRIKLSLKSLVNKGILVQTRGTGASGSFKLS | 0.109 ± 0.14
39 | VSKLITEALSVSQERVGMSLVALKKALAAAGYDVEKNESRIKLSLKSLVNKGILVQTRGTGASGSFKLS | -0.061 ± 0.14
